The source of these data is patent US20260115305A1, “LINKERS, CONJUGATES AND APPLICATIONS THEREOF” (GENEQUANTUM HEALTHCARE (SUZHOU) CO., LTD., priority 2022, published 2026).

For series [1] the following is noted: first-phase clinical trial; cited from earlier work.
In series [2] the target is T1, TROP2 (human, UniProt P09758 27-323).
T1 sequence (looked up): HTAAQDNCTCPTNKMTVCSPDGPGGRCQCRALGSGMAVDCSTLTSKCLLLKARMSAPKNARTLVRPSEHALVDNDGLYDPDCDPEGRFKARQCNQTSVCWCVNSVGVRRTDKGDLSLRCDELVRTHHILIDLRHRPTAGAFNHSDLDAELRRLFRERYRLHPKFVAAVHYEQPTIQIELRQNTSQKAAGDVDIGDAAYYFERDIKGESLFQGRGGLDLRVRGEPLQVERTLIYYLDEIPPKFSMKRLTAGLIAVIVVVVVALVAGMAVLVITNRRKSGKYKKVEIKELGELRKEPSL
The experiment in a line: cell-based or functional assay.

Series [3] addresses T1, TROP2. The series is described as follows: cell-based or functional assay. This is another data set of the same source.

DS1062: in series [1], the “patients with adverse events above Grade 3” value was 48% and the “patients with interstitial lung disease” value was 8%.

B1: ADC-5 (antibody, human IgG1, kappa, V domains shown)
VH: QVQLQQSGSELKKPGASVKVSCKASGYTFTNYGMNWVKQAPGQGLKWMGWINTYTGEPTYTDDFKGRFAFSLDTSVSTAYLQISSLKADDTAVYFCARGGFGSSYWYFDVWGQGSLVTVSS
VL: DIQLTQSPSSLSASVGDRVSITCKASQDVSIAVAWYQQKPGKAPKLLIYSASYRYTGVPDRFSGSGSGTDFTLTISSLQPEDFAVYYCQQHYITPLTFGAGTKVEIKR
modifications: Linker-Payload 1 joined by Sortase A ligation at the C-terminal GALPETGG tag of the light chain (resulting sequence LPXTGn with n = 3, then linker-payload); DAR value 3.5
As for B1, the “IC50, inhibition of proliferation of TROP2-positive BxPC-3 cells (CellTiterGlo, 120 h)” value (from here on “IC50, inhibition”) with TROP2 [2] worked out at 0.249 nM. In the series with TROP2 [3], the “Endocytosis by TROP2-positive tumor cells: Half Life” value (“Endocytosis … Half Life” for short) turned out to be 45.6 min, the “Endocytosis by TROP2-positive tumor cells: Maximum endocytosis (MFI)” value (from here on “Endocytosis … (MFI)”) is 18600 MFI and the “Endocytosis by TROP2-positive tumor cells: Maximum endocytosis rate (%)” value (from here on “Endocytosis by TROP2-positive tumor cells … (%)”) was found to be 46%.

B2: Ab2 (antibody, human IgG1, kappa, V domains shown)
VH: QVQLQQSGSELKKPGASVKVSCKASGYTFTNYGMNWVKQAPGQGLKWMGWINTYTGEPTYTDDFKGRFAFSLDTSVSTAYLQISSLKADDTAVYFCARGGFGSSYWYFDVWGQGSLVTVSS
VL: DIQLTQSPSSLSASVGDRVSITCKASQDVSIAVAWYQQKPGKAPKLLIYSASYRYTGVPDRFSGSGSGTDFTLTISSLQPEDFAVYYCQQHYITPLTFGAGTKVEIKR
Turning to B2, in the series with TROP2 [3], the “Endocytosis … Half Life” value was found to be 48.2 min, the “Endocytosis … (MFI)” value came to 18500 MFI and the “Endocytosis by TROP2-positive tumor cells … (%)” value was found to be 46%.

B3: ADC-7 (antibody, human IgG1, kappa, V domains shown)
VH: QVQLQQSGSELKKPGASVKVSCKASGYTFTNYGMNWVKQAPGQGLKWMGWINTYTGEPTYTDDFKGRFAFSLDTSVSTAYLQISSLKADDTAVYFCARGGFGSSYWYFDVWGQGSLVTVSS
VL: DIQLTQSPSSLSASVGDRVSITCKASQDVSIAVAWYQQKPGKAPKLLIYSASYRYTGVPDRFSGSGSGTDFTLTISSLQPEDFAVYYCQQHYITPLTFGAGTKVEIKR
modifications: Linker-Payload 3 joined by Sortase A ligation at the C-terminal GALPETGG tag of the light chain; DAR value 3.6
Regarding B3, the “IC50, inhibition” value with TROP2 [2] was 0.602 nM.

B4: ADC-6 (antibody, human IgG1, kappa, V domains shown)
VH: QVQLQQSGSELKKPGASVKVSCKASGYTFTNYGMNWVKQAPGQGLKWMGWINTYTGEPTYTDDFKGRFAFSLDTSVSTAYLQISSLKADDTAVYFCARGGFGSSYWYFDVWGQGSLVTVSS
VL: DIQLTQSPSSLSASVGDRVSITCKASQDVSIAVAWYQQKPGKAPKLLIYSASYRYTGVPDRFSGSGSGTDFTLTISSLQPEDFAVYYCQQHYITPLTFGAGTKVEIKR
modifications: Linker-Payload 2 joined by Sortase A ligation at the C-terminal GALPETGG tag of the light chain; DAR value 3.6
With B4, the “IC50, inhibition” value with TROP2 [2] amounted to 0.254 nM. In the series with TROP2 [3], the “Endocytosis … Half Life” value amounted to 42.8 min, the “Endocytosis … (MFI)” value stood at 18200 MFI and the “Endocytosis by TROP2-positive tumor cells … (%)” value came to 45%.
